T1: recombinant human activated Factor VII (FVIIa) (human, UniProt P08709 61-212; P08709 213-466, ten glutamate residues of the Gla domain may be gamma-carboxylated)
T1 construct: chains tethered by a disulfide bond; also called Factor VIIa; rFVIIa
T1 sequence 1: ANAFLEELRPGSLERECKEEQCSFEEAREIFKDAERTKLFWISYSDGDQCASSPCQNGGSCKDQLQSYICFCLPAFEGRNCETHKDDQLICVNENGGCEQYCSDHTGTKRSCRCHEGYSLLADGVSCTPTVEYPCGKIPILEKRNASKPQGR
T1 sequence 2: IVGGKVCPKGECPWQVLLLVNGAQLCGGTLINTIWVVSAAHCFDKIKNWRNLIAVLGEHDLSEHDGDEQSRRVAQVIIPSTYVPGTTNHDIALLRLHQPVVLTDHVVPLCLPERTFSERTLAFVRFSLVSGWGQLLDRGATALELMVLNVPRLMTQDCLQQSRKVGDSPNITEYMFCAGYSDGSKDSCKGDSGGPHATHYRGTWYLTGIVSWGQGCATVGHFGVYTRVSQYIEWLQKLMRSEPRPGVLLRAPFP


Target: T1, recombinant human activated Factor VII …
Assay: BLI (Fortebio)

| Kd | Binder |
| --- | --- |
| 1.2 nM | VH SEQ ID NO 634 / VL SEQ ID NO 350 (antibody, IgG4, V domains shown, humanized 11F2; IgG4 S228P/kappa) VH: QVQLQESGPGLVKPSQTLSLTCTVSGYSISSDSAWSWIRQPPGKGLEWIGYIQYSGSTNYNPSLKSRVTISRDTSKNQFSLKLSSVTAADTAVYYCARSVNYYGNSFAVGYWGQGTLVTVSS VL: EIVLTQSPATLSLSPGERATLSCRASQGISDYLHWYQQKPGQAPRLLIKYTSQPATGIPARFSGSGSGTDFTLTISSLEPEDFAVYYCQNGHSFPLTFGAGTKLELK |
| 1.3 nM | VH SEQ ID NO 634 / VL SEQ ID NO 502 (antibody, IgG4, V domains shown, humanized 11F2; IgG4 S228P/kappa) VH: QVQLQESGPGLVKPSQTLSLTCTVSGYSISSDSAWSWIRQPPGKGLEWIGYIQYSGSTNYNPSLKSRVTISRDTSKNQFSLKLSSVTAADTAVYYCARSVNYYGNSFAVGYWGQGTLVTVSS VL: EIVLTQSPATLSLSPGERATLSCRASQGVSDYLHWYQQKPGQAPRLLIKYTSQPATGIPARFSGSGSGTDFTLTISSLEPEDFAVYYCQNGHSFPLTFGQGTKLEIK |
| 1.4 nM | VH SEQ ID NO 634 / VL SEQ ID NO 486 (antibody, IgG4, V domains shown, humanized 11F2; IgG4 S228P/kappa) VH: QVQLQESGPGLVKPSQTLSLTCTVSGYSISSDSAWSWIRQPPGKGLEWIGYIQYSGSTNYNPSLKSRVTISRDTSKNQFSLKLSSVTAADTAVYYCARSVNYYGNSFAVGYWGQGTLVTVSS VL: EIVLTQSPATLSLSPGERATLSCRASQGVSDYLHWYQQKPGQAPRLLIKYASQPATGIPARFSGSGSGTDFTLTISSLEPEDFGVYYCQNGHSFPLTFGQGTKLEIK |
| 4.2 nM | VH SEQ ID NO 634 / VL SEQ ID NO 406 (antibody, IgG4, V domains shown, humanized 11F2; IgG4 S228P/kappa) VH: QVQLQESGPGLVKPSQTLSLTCTVSGYSISSDSAWSWIRQPPGKGLEWIGYIQYSGSTNYNPSLKSRVTISRDTSKNQFSLKLSSVTAADTAVYYCARSVNYYGNSFAVGYWGQGTLVTVSS VL: EIVLTQSPATLSLSPGERATLSCRASQGVSDYLAWYQQKPGQAPRLLIKYASQPATGIPARFSGSGSGTDFTLTISSLEPEDFAVYYCQNGHSFPLTFGAGTKLEIK |
| 4.5 nM | VH SEQ ID NO 634 / VL SEQ ID NO 374 (antibody, IgG4, V domains shown, humanized 11F2; IgG4 S228P/kappa) VH: QVQLQESGPGLVKPSQTLSLTCTVSGYSISSDSAWSWIRQPPGKGLEWIGYIQYSGSTNYNPSLKSRVTISRDTSKNQFSLKLSSVTAADTAVYYCARSVNYYGNSFAVGYWGQGTLVTVSS VL: EIVLTQSPATLSLSPGERATLSCRASQGLSDYLAWYQQKPGQAPRLLIKYTSQPATGIPARFSGSGSGTDFTLTISSLEPEDFAVYYCQNGHSFPLTFGQGTKLEIK |
| 1.2 nM | VH SEQ ID NO 634 / VL SEQ ID NO 462 (antibody, IgG4, V domains shown, humanized 11F2; IgG4 S228P/kappa) VH: QVQLQESGPGLVKPSQTLSLTCTVSGYSISSDSAWSWIRQPPGKGLEWIGYIQYSGSTNYNPSLKSRVTISRDTSKNQFSLKLSSVTAADTAVYYCARSVNYYGNSFAVGYWGQGTLVTVSS VL: EIVLTQSPATLSLSPGERATLSCRASQGVSDYLHWYQQKPGQAPRLLIKYASQPATGIPARFSGSGSGTDFTLTISSLEPEDFAVYYCQNGHSFPLTFGAGTKLEIK |
| 1.3 nM | VH SEQ ID NO 634 / VL SEQ ID NO 494 (antibody, IgG4, V domains shown, humanized 11F2; IgG4 S228P/kappa) VH: QVQLQESGPGLVKPSQTLSLTCTVSGYSISSDSAWSWIRQPPGKGLEWIGYIQYSGSTNYNPSLKSRVTISRDTSKNQFSLKLSSVTAADTAVYYCARSVNYYGNSFAVGYWGQGTLVTVSS VL: EIVLTQSPATLSLSPGERATLSCRASQGVSDYLHWYQQKPGQAPRLLIKYASQPATGIPARFSGSGSGTDFTLTISSLEPEDVAVYYCQNGHSFPLTFGQGTKLEIK |
| 4.3 nM | VH SEQ ID NO 634 / VL SEQ ID NO 390 (antibody, IgG4, V domains shown, humanized 11F2; IgG4 S228P/kappa) VH: QVQLQESGPGLVKPSQTLSLTCTVSGYSISSDSAWSWIRQPPGKGLEWIGYIQYSGSTNYNPSLKSRVTISRDTSKNQFSLKLSSVTAADTAVYYCARSVNYYGNSFAVGYWGQGTLVTVSS VL: EIVLTQSPATLSLSPGERATLSCRASQGVSDYLAWYQQKPGEAPRLLIKYASQPATGIPARFSGSGSGTDFTLTISSLEPEDFAVYYCQNGHSFPLTFGQGTKLEIK |
| 26 nM | VH SEQ ID NO 634 / VL SEQ ID NO 422 (antibody, IgG4, V domains shown, humanized 11F2; IgG4 S228P/kappa) VH: QVQLQESGPGLVKPSQTLSLTCTVSGYSISSDSAWSWIRQPPGKGLEWIGYIQYSGSTNYNPSLKSRVTISRDTSKNQFSLKLSSVTAADTAVYYCARSVNYYGNSFAVGYWGQGTLVTVSS VL: EIVLTQSPATLSLSPGERATLSCRASQGVSDYLAWYQQKPGQAPRLLIKYASQPATGIPARFSGSGSGTDFTLTISSLEPEDFAVYYCQQGHSFPLTFGQGTKLEIK |
| 4.6 nM | VH SEQ ID NO 634 / VL SEQ ID NO 414 (antibody, IgG4, V domains shown, humanized 11F2; IgG4 S228P/kappa) VH: QVQLQESGPGLVKPSQTLSLTCTVSGYSISSDSAWSWIRQPPGKGLEWIGYIQYSGSTNYNPSLKSRVTISRDTSKNQFSLKLSSVTAADTAVYYCARSVNYYGNSFAVGYWGQGTLVTVSS VL: EIVLTQSPATLSLSPGERATLSCRASQGVSDYLAWYQQKPGQAPRLLIKYASQPATGIPARFSGSGSGTDFTLTISSLEPEDFAVYYCQNGHSFPLTFGQGTKLEIK |
| 1.2 nM | VH SEQ ID NO 634 / VL SEQ ID NO 454 (antibody, IgG4, V domains shown, humanized 11F2; IgG4 S228P/kappa) VH: QVQLQESGPGLVKPSQTLSLTCTVSGYSISSDSAWSWIRQPPGKGLEWIGYIQYSGSTNYNPSLKSRVTISRDTSKNQFSLKLSSVTAADTAVYYCARSVNYYGNSFAVGYWGQGTLVTVSS VL: EIVLTQSPATLSLSPGERATLSCRASQGVSDYLHWYQQKPGEAPRLLIKYASQPATGIPARFSGSGSGTDFTLTISSLEPEDFAVYYCQNGHSFPLTFGQGTKLEIK |
| 7.7 nM | VH SEQ ID NO 634 / VL SEQ ID NO 446 (antibody, IgG4, V domains shown, humanized 11F2; IgG4 S228P/kappa) VH: QVQLQESGPGLVKPSQTLSLTCTVSGYSISSDSAWSWIRQPPGKGLEWIGYIQYSGSTNYNPSLKSRVTISRDTSKNQFSLKLSSVTAADTAVYYCARSVNYYGNSFAVGYWGQGTLVTVSS VL: EIVLTQSPATLSLSPGERATLSCRASQGVSDYLAWYQQKPGQAPRLLIKYTSQPATGIPARFSGSGSGTDFTLTISSLEPEDFAVYYCQNGHSFPLTFGQGTKLEIK |
| 4.8 nM | VH SEQ ID NO 634 / VL SEQ ID NO 438 (antibody, IgG4, V domains shown, humanized 11F2; IgG4 S228P/kappa) VH: QVQLQESGPGLVKPSQTLSLTCTVSGYSISSDSAWSWIRQPPGKGLEWIGYIQYSGSTNYNPSLKSRVTISRDTSKNQFSLKLSSVTAADTAVYYCARSVNYYGNSFAVGYWGQGTLVTVSS VL: EIVLTQSPATLSLSPGERATLSCRASQGVSDYLAWYQQKPGQAPRLLIKYASQPATGIPARFSGSGSGTDFTLTISSLEPEDVAVYYCQNGHSFPLTFGQGTKLEIK |
| 4.9 nM | VH SEQ ID NO 634 / VL SEQ ID NO 430 (antibody, IgG4, V domains shown, humanized 11F2; IgG4 S228P/kappa) VH: QVQLQESGPGLVKPSQTLSLTCTVSGYSISSDSAWSWIRQPPGKGLEWIGYIQYSGSTNYNPSLKSRVTISRDTSKNQFSLKLSSVTAADTAVYYCARSVNYYGNSFAVGYWGQGTLVTVSS VL: EIVLTQSPATLSLSPGERATLSCRASQGVSDYLAWYQQKPGQAPRLLIKYASQPATGIPARFSGSGSGTDFTLTISSLEPEDFGVYYCQNGHSFPLTFGQGTKLEIK |
| 8.2 nM | VH SEQ ID NO 634 / VL SEQ ID NO 398 (antibody, IgG4, V domains shown, humanized 11F2; IgG4 S228P/kappa) VH: QVQLQESGPGLVKPSQTLSLTCTVSGYSISSDSAWSWIRQPPGKGLEWIGYIQYSGSTNYNPSLKSRVTISRDTSKNQFSLKLSSVTAADTAVYYCARSVNYYGNSFAVGYWGQGTLVTVSS VL: EIVLTQSPATLSLSPGERATLSCRASQGVSDYLAWYQQKPGEAPRLLIKYTSQPATGIPARFSGSGSGTDFTLTISSLEPEDFAVYYCQNGHSFPLTFGQGTKLEIK |
| 0.82 nM | VH SEQ ID NO 634 / VL SEQ ID NO 358 (antibody, IgG4, V domains shown, humanized 11F2; IgG4 S228P/kappa) VH: QVQLQESGPGLVKPSQTLSLTCTVSGYSISSDSAWSWIRQPPGKGLEWIGYIQYSGSTNYNPSLKSRVTISRDTSKNQFSLKLSSVTAADTAVYYCARSVNYYGNSFAVGYWGQGTLVTVSS VL: EIVLTQSPATLSLSPGERATLSCRASQGISDYLHWYQQKPGQAPRLLIKYTSQPATGIPARFSGSGSGTDFTLTISSLEPEDFAVYYCQNGHSFPLTFGQGTKLEIK |
| 1.8 nM | VH SEQ ID NO 634 / VL SEQ ID NO 478 (antibody, IgG4, V domains shown, humanized 11F2; IgG4 S228P/kappa) VH: QVQLQESGPGLVKPSQTLSLTCTVSGYSISSDSAWSWIRQPPGKGLEWIGYIQYSGSTNYNPSLKSRVTISRDTSKNQFSLKLSSVTAADTAVYYCARSVNYYGNSFAVGYWGQGTLVTVSS VL: EIVLTQSPATLSLSPGERATLSCRASQGVSDYLHWYQQKPGQAPRLLIKYASQPATGIPARFSGSGSGTDFTLTISSLEPEDFAVYYCQQGHSFPLTFGQGTKLEIK |
| 3.1 nM | VH SEQ ID NO 634 / VL SEQ ID NO 366 (antibody, IgG4, V domains shown, humanized 11F2; IgG4 S228P/kappa) VH: QVQLQESGPGLVKPSQTLSLTCTVSGYSISSDSAWSWIRQPPGKGLEWIGYIQYSGSTNYNPSLKSRVTISRDTSKNQFSLKLSSVTAADTAVYYCARSVNYYGNSFAVGYWGQGTLVTVSS VL: EIVLTQSPATLSLSPGERATLSCRASQGLSDYLAWYQQKPGEAPRLLIKYASQPATGIPARFSGSGSGTDFTLTISSLEPEDFAVYYCQNGHSFPLTFGQGTKLEIK |
| 1.2 nM | VH SEQ ID NO 634 / VL SEQ ID NO 382 (antibody, IgG4, V domains shown, humanized 11F2; IgG4 S228P/kappa) VH: QVQLQESGPGLVKPSQTLSLTCTVSGYSISSDSAWSWIRQPPGKGLEWIGYIQYSGSTNYNPSLKSRVTISRDTSKNQFSLKLSSVTAADTAVYYCARSVNYYGNSFAVGYWGQGTLVTVSS VL: EIVLTQSPATLSLSPGERATLSCRASQGLSDYLHWYQQKPGEAPRLLIKYASQPATGIPARFSGSGSGTDFTLTISSLEPEDFAVYYCQNGHSFPLTFGQGTKLEIK |
| 1 nM | VH SEQ ID NO 634 / VL SEQ ID NO 470 (antibody, IgG4, V domains shown, humanized 11F2; IgG4 S228P/kappa) VH: QVQLQESGPGLVKPSQTLSLTCTVSGYSISSDSAWSWIRQPPGKGLEWIGYIQYSGSTNYNPSLKSRVTISRDTSKNQFSLKLSSVTAADTAVYYCARSVNYYGNSFAVGYWGQGTLVTVSS VL: EIVLTQSPATLSLSPGERATLSCRASQGVSDYLHWYQQKPGQAPRLLIKYASQPATGIPARFSGSGSGTDFTLTISSLEPEDFAVYYCQNGHSFPLTFGQGTKLEIK |

From patent publication US20220064329A1 (Novo Nordisk, published 2022)
